Key:
[1] = biological target: kap3_human PRKAR2B (UniProt P31323)
[2] = biological target: kap3_human PRKAR2B (UniProt P31323); remark: listed apart in the source

effect of a mutation on the interaction [1]: disrupting interaction strength
effect of a mutation on the interaction [2]: decreasing interaction strength
Substance: cAMP-dependent protein kinase catalytic subunit alpha (Homo sapiens) (from UniProt P17612) L206R
